Assay results published in publication PMC1669734 (Nucleic Acids Research, 2006).

Biological target: T1, 35S-MCM (T.acidophilum MCM labeled with 35S-Met) (Thermoplasma acidophilum, UniProt Q9HK10 1-698, 35S-Met)
T1 sequence (looked up): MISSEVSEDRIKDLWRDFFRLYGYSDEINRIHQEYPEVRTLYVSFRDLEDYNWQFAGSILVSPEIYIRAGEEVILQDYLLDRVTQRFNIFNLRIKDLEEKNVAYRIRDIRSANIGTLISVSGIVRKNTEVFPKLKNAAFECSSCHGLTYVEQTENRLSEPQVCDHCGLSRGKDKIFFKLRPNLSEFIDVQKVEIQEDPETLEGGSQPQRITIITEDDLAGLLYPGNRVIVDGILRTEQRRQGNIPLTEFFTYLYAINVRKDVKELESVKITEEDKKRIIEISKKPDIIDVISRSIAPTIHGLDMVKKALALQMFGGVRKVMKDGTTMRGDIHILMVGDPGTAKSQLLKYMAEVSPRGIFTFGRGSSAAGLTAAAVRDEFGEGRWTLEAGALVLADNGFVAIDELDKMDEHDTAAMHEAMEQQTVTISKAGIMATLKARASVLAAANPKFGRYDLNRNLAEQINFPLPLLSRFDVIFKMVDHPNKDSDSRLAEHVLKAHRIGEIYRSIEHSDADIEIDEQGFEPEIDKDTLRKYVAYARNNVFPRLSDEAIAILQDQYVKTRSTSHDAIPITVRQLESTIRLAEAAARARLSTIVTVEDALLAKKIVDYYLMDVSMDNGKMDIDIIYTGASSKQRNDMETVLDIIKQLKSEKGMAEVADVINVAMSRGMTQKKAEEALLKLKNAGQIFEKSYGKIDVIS
Experiment: pull-down

binding result: binds
B1: T.acidophilum Cdc6-2 (Ta0636), C-terminal six His-tag (natural protein, Thermoplasma acidophilum, UniProt Q9HKG3 1-404, looked up)
chain: MDNPFARFAGTRTIQANLSLLEENYVPDSFPHRENQINEMVTILSSIMRGSRPSNIIVYGKTGTGKTSTTKYVTKMLVEAASNVSVVYVNCEIYDSPYSILVAIANSAGEEKIPELGWPIDRIYRETVERVEKTGKFFIIILDEMDRLIKKNGGDSLYVLLKLMTDVDSVRVSMIGITNDTTVLENIDARIKSRLNQESIVFPPYNASEIRDIISSRLDKVLGPGVVDDTAINLCAAIGAQEHGDARKAIDLMRIAIEIAIRENRNKITENEIYEARERYEMNVLREAISTLPLHSKIVLLSAVVTQEIEPNSVITGEIYENYRRICDDLGFSPLSPRRISDLLTELADYGLLVMDDRNMGKYGRTRSFSVVHQAETIKKYLLEDENLSMFKSSKMPKQTRFDT
